Laboratory results taken from US12077763B2, “RNA-based control of powdery mildew” (Greenlight Biosciences, Inc., priority 2021, dated 2024).

B1: GS3303 (nucleic acid)
sense: UUACCCUACACCUACUGGAGGUUACUCUGAAGAGCCCUACCACUAUAAAGGUGUCAAGCUAGGUCAUUGAGAGGAUUGAGUUACGAAAUUUGAUUGCAGCCACGCCUUCGACUUCAACCGAGAAGAGUUCCAAUCUCCCUCUUAGACGCAGGACUACUCUCACGAUACUUCUGUCUCUACUUCUUCUCAUGAGCACGCUAAUACUCUCUAAGCCUCCGUUGAUGUGUUGAAAGACAGGCACCUCAGUUUUGAUUCUAUUCAGCUCGGCAAACAUGUUGUGUACAUUCAUAGACUGAAUUU
antisense: AAAUUCAGUCUAUGAAUGUACACAACAUGUUUGCCGAGCUGAAUAGAAUCAAAACUGAGGUGCCUGUCUUUCAACACAUCAACGGAGGCUUAGAGAGUAUUAGCGUGCUCAUGAGAAGAAGUAGAGACAGAAGUAUCGUGAGAGUAGUCCUGCGUCUAAGAGGGAGAUUGGAACUCUUCUCGGUUGAAGUCGAAGGCGUGGCUGCAAUCAAAUUUCGUAACUCAAUCCUCUCAAUGACCUAGCUUGACACCUUUAUAGUGGUAGGGCUCUUCAGAGUAACCUCCAGUAGGUGUAGGGUAA
B2: GS3297 (nucleic acid)
sense: GAGAAGAGGUCCGUGAGAAUUUUGACUCAUCUUUUGCCGCUCUUUAUCAUGAUCUUGAUAUGGGAUUUACACCGAUCAACUUUACAUUUUACUGGGCACCUCUACCUUGGAAUCGUGCUCGUGAUCAUGCCCAAAGAACUGUUGCUAGGACUUAUAUGAAUAUAAUCCAAGCUCGUACCCUCCUCUUCCCCUUCCCCUUCAUUGAACCUCGCUCCAAGGGGGCUUUAUGGGAAUCUGCCUCGUAGUAUAAAGUUCUGCAGCUGGCUCUACGGAUUGCAUCUACAACAACUACAACAUCAUCAUCAUCAUCAUCUUCAUCUUCAUCUUCUCCACCUUCAUAAGCUUCUACGUUUU
antisense: AAAACGUAGAAGCUUAUGAAGGUGGAGAAGAUGAAGAUGAAGAUGAUGAUGAUGAUGAUGUUGUAGUUGUUGUAGAUGCAAUCCGUAGAGCCAGCUGCAGAACUUUAUACUACGAGGCAGAUUCCCAUAAAGCCCCCUUGGAGCGAGGUUCAAUGAAGGGGAAGGGGAAGAGGAGGGUACGAGCUUGGAUUAUAUUCAUAUAAGUCCUAGCAACAGUUCUUUGGGCAUGAUCACGAGCACGAUUCCAAGGUAGAGGUGCCCAGUAAAAUGUAAAGUUGAUCGGUGUAAAUCCCAUAUCAAGAUCAUGAUAAAGAGCGGCAAAAGAUGAGUCAAAAUUCUCACGGACCUCUUCUC
B3: GS3300 (nucleic acid)
sense: GUAUCAACCAUUGCCUCUCCAAACCUUUCACCAACAACUUCCUUUUCAUCUUUUGUACGAACAGAAACGCCUGAUUCCAGUCUGCCAUUUAUAGAAAAUCCAGUGGCUAGACAAAAUGCACAUUGUAGUAGUAAGAGUGUUGGCAAUGGAAAUGGAAUUUUUAACUUGGACAUGAAUCUUUUGGCUUCUGCUGCUAUUAGGGUGGAAGGGAAUCACUCAUCAAACGCUUGUCAUCUCCCCCGAUACAAUAAAUCAUGCUGCGACCUCAGUGCGUACAAGAGUCGUUCUCAUUUUGCCUCAUCAUCACUUGUUCAGUCUCAUCCACCUCCGACAUUAGACAAGCUCAAUCAUUGCAUUAAGAGGUAUAUGAAGCGUUCACGAACUGACU
antisense: AGUCAGUUCGUGAACGCUUCAUAUACCUCUUAAUGCAAUGAUUGAGCUUGUCUAAUGUCGGAGGUGGAUGAGACUGAACAAGUGAUGAUGAGGCAAAAUGAGAACGACUCUUGUACGCACUGAGGUCGCAGCAUGAUUUAUUGUAUCGGGGGAGAUGACAAGCGUUUGAUGAGUGAUUCCCUUCCACCCUAAUAGCAGCAGAAGCCAAAAGAUUCAUGUCCAAGUUAAAAAUUCCAUUUCCAUUGCCAACACUCUUACUACUACAAUGUGCAUUUUGUCUAGCCACUGGAUUUUCUAUAAAUGGCAGACUGGAAUCAGGCGUUUCUGUUCGUACAAAAGAUGAAAAGGAAGUUGUUGGUGAAAGGUUUGGAGAGGCAAUGGUUGAUAC
B4: GS3302 (nucleic acid)
sense: UCUGAAGAGCCCUACCACUAUAAAGGUGUCAAGCUAGGUCAUUGAGAGGAUUGAGUUACGAAAUUUGAUUGCAGCCACGCCUUCGACUUCAACCGAGAAGAGUUCCAAUCUCCCUCUUAGACGCAGGACUACUCUCACGAUACUUCUGUCUCUACUUCUUCUCAUGAGCACGCUAAUACUCUCUAAGCCUCCGUUGAUGUGUUGAAAGACAGGCACCUCAGUUUUGAUUCUAUUCAGCUCGGCAAACAUG
antisense: CAUGUUUGCCGAGCUGAAUAGAAUCAAAACUGAGGUGCCUGUCUUUCAACACAUCAACGGAGGCUUAGAGAGUAUUAGCGUGCUCAUGAGAAGAAGUAGAGACAGAAGUAUCGUGAGAGUAGUCCUGCGUCUAAGAGGGAGAUUGGAACUCUUCUCGGUUGAAGUCGAAGGCGUGGCUGCAAUCAAAUUUCGUAACUCAAUCCUCUCAAUGACCUAGCUUGACACCUUUAUAGUGGUAGGGCUCUUCAGA
B5: GS3298 (nucleic acid)
sense: AUGCCUUACAAGGAGAAGAGGUCCGUGAGAAUUUUGACUCAUCUUUUGCCGCUCUUUAUCAUGAUCUUGAUAUGGGAUUUACACCGAUCAACUUUACAUUUUACUGGGCACCUCUACCUUGGAAUCGUGCUCGUGAUCAUGCCCAAAGAACUGUUGCUAGGACUUAUAUGAAUAUAAUCCAAGCUCGUAGAGAAGAGAAAACGUCAACAACCCCCCUCCUCUUCCCCUUCCCCUUCAUUGAACCUCGCUCCAAGGGGGCUUUAUGGGAAUCUGCCUCGUAGUAUAAAGUUCUGCAGCUGGCUCUACGGAUUGCAUCUACAACAACUACAACAUCAUCAUCAUCAUCAUCUUCAUCUUCAUCUUCUCCACCUUCAUAAGCUUCUACGUUUUUGCAUGUUCAA
antisense: UUGAACAUGCAAAAACGUAGAAGCUUAUGAAGGUGGAGAAGAUGAAGAUGAAGAUGAUGAUGAUGAUGAUGUUGUAGUUGUUGUAGAUGCAAUCCGUAGAGCCAGCUGCAGAACUUUAUACUACGAGGCAGAUUCCCAUAAAGCCCCCUUGGAGCGAGGUUCAAUGAAGGGGAAGGGGAAGAGGAGGGGGGUUGUUGACGUUUUCUCUUCUCUACGAGCUUGGAUUAUAUUCAUAUAAGUCCUAGCAACAGUUCUUUGGGCAUGAUCACGAGCACGAUUCCAAGGUAGAGGUGCCCAGUAAAAUGUAAAGUUGAUCGGUGUAAAUCCCAUAUCAAGAUCAUGAUAAAGAGCGGCAAAAGAUGAGUCAAAAUUCUCACGGACCUCUUCUCCUUGUAAGGCAU
B6: GS3304 (nucleic acid)
sense: GUUACGCAUCGCCAACAGGGACCAGUUACCCUACACCUACUGGAGGUUACUCUGAAGAGCCCUACCACUAUAAAGGUGUCAAGCUAGGUCAUUGAGAGGAUUGAGUUACGAAAUUUGAUUGCAGCCACGCCUUCGACUUCAACCGAGAAGAGUUCCAAUCUCCCUCUUAGACGCAGGACUACUCUCACGAUACUUCUGUCUCUACUUCUUCUCAUGAGCACGCUAAUACUCUCUAAGCCUCCGUUGAUGUGUUGAAAGACAGGCACCUCAGUUUUGAUUCUAUUCAGCUCGGCAAACAUGUUGUGUACAUUCAUAGACUGAAUUUCUUUUUUAUUAUUUUUUUCCAAAUA
antisense: UAUUUGGAAAAAAAUAAUAAAAAAGAAAUUCAGUCUAUGAAUGUACACAACAUGUUUGCCGAGCUGAAUAGAAUCAAAACUGAGGUGCCUGUCUUUCAACACAUCAACGGAGGCUUAGAGAGUAUUAGCGUGCUCAUGAGAAGAAGUAGAGACAGAAGUAUCGUGAGAGUAGUCCUGCGUCUAAGAGGGAGAUUGGAACUCUUCUCGGUUGAAGUCGAAGGCGUGGCUGCAAUCAAAUUUCGUAACUCAAUCCUCUCAAUGACCUAGCUUGACACCUUUAUAGUGGUAGGGCUCUUCAGAGUAACCUCCAGUAGGUGUAGGGUAACUGGUCCCUGUUGGCGAUGCGUAAC
B7: GS3299 (nucleic acid)
sense: CACCAGGAUCCACCUAAAGAUGAGCCAACCGAUCAGAAGUCUCUGGAGCUGAGGAGAACCUUAUUUUAUAGUAUUUACUCUCUUGAUAGAUCUGUCAGUAUGGUUCACGCGCGCUCUUUUUCAUUUACCGACGAUUCGACUAGCGUUACUUUCCCAUCCAUUAAGAACGAGAAAUUACCAGUCGACACCAAAUUAAAACUAGGUAGGAAAUUCAAGAUUCAAUCCUCACUUUUAUUCAAACUUCGAAAGAUUCAGUCUUCAUGGUAUCACGAGCUUUUUCAAUCCAAAAAUGAUUUUAUAACAAAUCCAUCAACAUAUAUUCAGAAAGUGUGUCAAGAAAUGCAAGCAUGGGCUCAGUCGAUUCCCGAAUAUUUACCCACUCAUAUCAAAAAUUAUUU
antisense: AAAUAAUUUUUGAUAUGAGUGGGUAAAUAUUCGGGAAUCGACUGAGCCCAUGCUUGCAUUUCUUGACACACUUUCUGAAUAUAUGUUGAUGGAUUUGUUAUAAAAUCAUUUUUGGAUUGAAAAAGCUCGUGAUACCAUGAAGACUGAAUCUUUCGAAGUUUGAAUAAAAGUGAGGAUUGAAUCUUGAAUUUCCUACCUAGUUUUAAUUUGGUGUCGACUGGUAAUUUCUCGUUCUUAAUGGAUGGGAAAGUAACGCUAGUCGAAUCGUCGGUAAAUGAAAAAGAGCGCGCGUGAACCAUACUGACAGAUCUAUCAAGAGAGUAAAUACUAUAAAAUAAGGUUCUCCUCAGCUCCAGAGACUUCUGAUCGGUUGGCUCAUCUUUAGGUGGAUCCUGGUG
B8: GS3301 (nucleic acid)
sense: CAACAGGGACCAGUUACCCUACACCUACUGGAGGUUACUCUGAAGAGCCCUACCACUAUAAAGGUGUCAAGCUAGGUCAUUGAGAGGAUUGAGUUACGAAAUUUGAUUGCAGCCACGCCUUCGACUUCAACCGAGAAGAGUUCCAAUCUCCCUCUUAGACGCAGGACUACUCUCACGAUACUUCUGUCUCUACUUCUUCUCAUGAGCACGCUAAUACUCUCUAAGCCUCCGUUGAUGUGUUGAAAGACAGGCACCUCAGUUUUGAUUCUAUUCAGCUCGGCAAACAUGUUGUGUACAUUCAUAGACUGAAUUUCUUUUUUAUUAUUU
antisense: AAAUAAUAAAAAAGAAAUUCAGUCUAUGAAUGUACACAACAUGUUUGCCGAGCUGAAUAGAAUCAAAACUGAGGUGCCUGUCUUUCAACACAUCAACGGAGGCUUAGAGAGUAUUAGCGUGCUCAUGAGAAGAAGUAGAGACAGAAGUAUCGUGAGAGUAGUCCUGCGUCUAAGAGGGAGAUUGGAACUCUUCUCGGUUGAAGUCGAAGGCGUGGCUGCAAUCAAAUUUCGUAACUCAAUCCUCUCAAUGACCUAGCUUGACACCUUUAUAGUGGUAGGGCUCUUCAGAGUAACCUCCAGUAGGUGUAGGGUAACUGGUCCCUGUUG

System: E. necator
Experiment: Leaf disc assay, dry inoculum (settling tower), decrease in disease severity / hyphal growth (Example 2)
Conditions: decrease in disease severity (hyphal growth) relative to untreated control, value ± SE; for % decrease =/− SE TP1: time point 1 (untreated control hyphal growth ≥50%); for % decrease =/− SE TP2: time point 2

| Molecule | % decrease =/− SE TP1 [%] | % decrease =/− SE TP2 [%] |
| --- | --- | --- |
| B1 | 35 ± 5 | 15 ± 9 |
| B2 | 12 ± 6 | 22 ± 7 |
| B3 | 9 ± 5 | 4 ± 8 |
| B4 | 31 ± 5 | 22 ± 7 |
| B5 | 22 ± 5 | 7 ± 7 |
| B6 | – | 6 ± 7 |
| B7 | – | 14 ± 7 |
| B8 | 32 ± 5 | 0 ± 9 |
